Laboratory results: patent publication US20090149389A1 (PURDUE RESEARCH FOUNDATION, published 2009)

Tests used:
Experiment in all cases: cell-based or functional assay
Aurora-A (h) = target: T1, Aurora-A (h) (human (h), UniProt O14965 1-403)
T1 sequence (looked up): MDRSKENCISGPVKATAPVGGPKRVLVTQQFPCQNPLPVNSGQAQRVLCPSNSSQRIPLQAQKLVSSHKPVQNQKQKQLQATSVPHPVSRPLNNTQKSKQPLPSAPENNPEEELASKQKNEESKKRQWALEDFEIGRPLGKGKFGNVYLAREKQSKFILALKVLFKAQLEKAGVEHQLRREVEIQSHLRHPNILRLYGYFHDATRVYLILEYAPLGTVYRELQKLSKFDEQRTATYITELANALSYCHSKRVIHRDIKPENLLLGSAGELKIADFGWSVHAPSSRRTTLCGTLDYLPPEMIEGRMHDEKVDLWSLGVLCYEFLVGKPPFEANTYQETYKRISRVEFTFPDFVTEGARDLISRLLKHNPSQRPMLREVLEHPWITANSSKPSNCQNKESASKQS

KDR (tl) = KDR (tl) (UniProt P35968 790-1356, limits assumed)
KDR (tl), sequence (P35968 790-1356 limits assumed): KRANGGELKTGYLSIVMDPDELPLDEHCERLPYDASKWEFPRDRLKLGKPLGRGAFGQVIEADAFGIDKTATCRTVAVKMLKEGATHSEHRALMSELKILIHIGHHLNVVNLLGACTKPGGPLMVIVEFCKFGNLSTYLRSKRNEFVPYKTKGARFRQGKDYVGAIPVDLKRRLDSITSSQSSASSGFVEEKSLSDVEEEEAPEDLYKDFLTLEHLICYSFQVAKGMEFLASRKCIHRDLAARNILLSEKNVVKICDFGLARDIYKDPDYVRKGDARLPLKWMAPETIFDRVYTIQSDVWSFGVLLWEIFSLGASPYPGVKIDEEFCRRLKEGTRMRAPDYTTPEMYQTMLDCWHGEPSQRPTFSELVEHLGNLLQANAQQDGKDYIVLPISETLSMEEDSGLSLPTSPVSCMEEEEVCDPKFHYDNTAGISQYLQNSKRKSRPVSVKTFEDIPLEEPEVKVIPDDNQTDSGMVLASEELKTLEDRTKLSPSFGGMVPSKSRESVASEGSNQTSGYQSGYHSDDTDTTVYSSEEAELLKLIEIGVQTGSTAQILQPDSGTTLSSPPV

PDGFRβ (h) = PDGFRβ (h) (human (h), UniProt P09619 558-1106, limits assumed)
PDGFRβ (h), sequence (P09619 558-1106 limits assumed): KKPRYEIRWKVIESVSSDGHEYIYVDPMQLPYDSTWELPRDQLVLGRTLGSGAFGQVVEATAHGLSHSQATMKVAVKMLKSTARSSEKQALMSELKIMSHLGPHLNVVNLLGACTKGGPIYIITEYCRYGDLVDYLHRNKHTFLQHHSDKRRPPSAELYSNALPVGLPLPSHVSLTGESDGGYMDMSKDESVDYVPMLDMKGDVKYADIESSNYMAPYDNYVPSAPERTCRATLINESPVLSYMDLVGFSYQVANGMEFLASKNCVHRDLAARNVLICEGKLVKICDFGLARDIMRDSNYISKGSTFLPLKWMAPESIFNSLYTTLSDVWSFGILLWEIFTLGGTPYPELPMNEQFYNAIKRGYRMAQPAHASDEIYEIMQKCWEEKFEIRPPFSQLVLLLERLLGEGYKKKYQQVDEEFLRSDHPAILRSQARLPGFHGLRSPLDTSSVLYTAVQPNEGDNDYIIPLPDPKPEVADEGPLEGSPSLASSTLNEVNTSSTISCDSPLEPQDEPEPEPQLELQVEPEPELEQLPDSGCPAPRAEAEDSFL

PKB β (h) = PKB β (h) (human (h), UniProt P31751 1-481, limits assumed)
PKB β (h), sequence (P31751 whole entry): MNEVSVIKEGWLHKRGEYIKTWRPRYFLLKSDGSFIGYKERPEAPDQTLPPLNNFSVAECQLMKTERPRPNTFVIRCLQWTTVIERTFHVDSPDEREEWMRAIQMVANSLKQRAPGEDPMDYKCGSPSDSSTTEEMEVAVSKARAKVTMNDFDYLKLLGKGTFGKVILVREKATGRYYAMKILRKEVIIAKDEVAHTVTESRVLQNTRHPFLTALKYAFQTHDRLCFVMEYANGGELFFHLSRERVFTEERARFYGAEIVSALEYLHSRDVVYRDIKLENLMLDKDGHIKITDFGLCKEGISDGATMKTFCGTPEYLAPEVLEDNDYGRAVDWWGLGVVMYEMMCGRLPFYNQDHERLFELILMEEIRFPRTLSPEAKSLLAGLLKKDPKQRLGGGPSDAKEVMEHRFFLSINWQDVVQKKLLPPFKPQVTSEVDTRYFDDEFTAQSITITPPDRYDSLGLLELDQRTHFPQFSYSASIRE

MAPKI (h) = MAPKI (h) (human (h), UniProt P28482 1-360, limits assumed)
MAPKI (h), sequence (P28482 whole entry): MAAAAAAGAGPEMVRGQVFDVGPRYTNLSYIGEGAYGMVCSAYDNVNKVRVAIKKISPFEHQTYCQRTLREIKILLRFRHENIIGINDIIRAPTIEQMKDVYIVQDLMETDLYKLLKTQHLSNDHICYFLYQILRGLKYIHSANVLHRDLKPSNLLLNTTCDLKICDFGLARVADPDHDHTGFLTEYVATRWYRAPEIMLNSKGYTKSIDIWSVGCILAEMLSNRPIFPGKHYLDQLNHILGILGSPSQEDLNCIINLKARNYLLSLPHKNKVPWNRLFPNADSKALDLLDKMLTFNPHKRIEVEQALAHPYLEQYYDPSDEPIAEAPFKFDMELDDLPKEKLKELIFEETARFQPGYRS

EGFR (h) = EGFR (h) (human (h), UniProt P00533 696-1210, limits assumed)
BTK (h) = BTK (h) (human (h), UniProt Q06187 1-659)
BTK (h), sequence (Q06187 whole entry): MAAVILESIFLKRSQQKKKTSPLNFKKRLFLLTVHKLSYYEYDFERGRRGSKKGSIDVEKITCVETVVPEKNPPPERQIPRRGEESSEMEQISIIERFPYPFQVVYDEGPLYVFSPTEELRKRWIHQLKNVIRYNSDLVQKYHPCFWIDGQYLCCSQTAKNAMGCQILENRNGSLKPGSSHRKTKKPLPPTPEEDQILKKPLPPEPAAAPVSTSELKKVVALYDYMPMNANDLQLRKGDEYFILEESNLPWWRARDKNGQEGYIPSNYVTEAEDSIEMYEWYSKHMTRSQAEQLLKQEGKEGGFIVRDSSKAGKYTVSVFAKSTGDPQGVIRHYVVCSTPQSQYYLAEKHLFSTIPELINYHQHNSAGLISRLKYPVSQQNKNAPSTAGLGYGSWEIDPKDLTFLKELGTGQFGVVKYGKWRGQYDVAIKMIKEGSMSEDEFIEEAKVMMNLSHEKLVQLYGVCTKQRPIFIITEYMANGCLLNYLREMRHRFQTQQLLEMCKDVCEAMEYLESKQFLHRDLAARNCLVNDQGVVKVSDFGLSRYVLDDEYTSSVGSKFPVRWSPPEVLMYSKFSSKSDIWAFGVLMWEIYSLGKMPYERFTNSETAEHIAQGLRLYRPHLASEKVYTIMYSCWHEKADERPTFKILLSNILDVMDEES

CaMKI (h) = CaMKI (h) (human (h), UniProt Q14012 1-370, limits assumed)
CaMKI (h), sequence (Q14012 whole entry): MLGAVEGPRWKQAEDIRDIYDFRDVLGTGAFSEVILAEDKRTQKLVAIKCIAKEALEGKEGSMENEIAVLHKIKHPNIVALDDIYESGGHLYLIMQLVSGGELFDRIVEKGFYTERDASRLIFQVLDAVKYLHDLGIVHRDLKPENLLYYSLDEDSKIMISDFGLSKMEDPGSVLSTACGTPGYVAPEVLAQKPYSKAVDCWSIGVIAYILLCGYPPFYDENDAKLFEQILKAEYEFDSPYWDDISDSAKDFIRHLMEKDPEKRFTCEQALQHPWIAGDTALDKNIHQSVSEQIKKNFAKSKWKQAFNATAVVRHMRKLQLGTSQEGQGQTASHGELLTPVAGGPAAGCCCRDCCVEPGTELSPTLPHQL

JAK3 (h) = JAK3 (h) (human (h), UniProt P52333 781-1124, limits assumed)
JAK3 (h), sequence (P52333 781-1124 limits assumed): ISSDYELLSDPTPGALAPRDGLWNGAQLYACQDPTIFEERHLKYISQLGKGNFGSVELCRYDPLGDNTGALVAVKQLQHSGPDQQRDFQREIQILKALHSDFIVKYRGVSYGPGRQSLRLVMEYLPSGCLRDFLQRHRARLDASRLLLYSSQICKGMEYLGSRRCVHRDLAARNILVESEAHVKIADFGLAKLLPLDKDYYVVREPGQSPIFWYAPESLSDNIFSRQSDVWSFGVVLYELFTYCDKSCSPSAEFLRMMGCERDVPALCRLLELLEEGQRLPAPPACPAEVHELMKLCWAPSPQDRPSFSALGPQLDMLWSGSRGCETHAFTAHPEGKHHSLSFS

Src(1-530) (h) = Src(1-530) (h) (human (h), UniProt P12931 1-530)
FGFR1 (h) = FGFR1 (h) (human (h), UniProt P11362 456-765, limits assumed)
FGFR1 (h), sequence (P11362 456-765 limits assumed): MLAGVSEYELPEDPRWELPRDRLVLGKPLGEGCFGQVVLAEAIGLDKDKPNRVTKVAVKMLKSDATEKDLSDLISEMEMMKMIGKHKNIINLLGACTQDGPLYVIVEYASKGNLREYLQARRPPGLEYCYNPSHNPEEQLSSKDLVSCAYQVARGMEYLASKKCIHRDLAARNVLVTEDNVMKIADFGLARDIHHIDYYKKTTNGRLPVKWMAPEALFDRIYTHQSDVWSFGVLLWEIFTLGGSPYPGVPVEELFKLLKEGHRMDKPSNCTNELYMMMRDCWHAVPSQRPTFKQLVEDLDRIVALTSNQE

MAPKAP-K2 (h) = MAPKAP-K2 (h) (human (h), UniProt P49137 46-400, limits assumed)
MAPKAP-K2 (h), sequence (P49137 46-400 limits assumed): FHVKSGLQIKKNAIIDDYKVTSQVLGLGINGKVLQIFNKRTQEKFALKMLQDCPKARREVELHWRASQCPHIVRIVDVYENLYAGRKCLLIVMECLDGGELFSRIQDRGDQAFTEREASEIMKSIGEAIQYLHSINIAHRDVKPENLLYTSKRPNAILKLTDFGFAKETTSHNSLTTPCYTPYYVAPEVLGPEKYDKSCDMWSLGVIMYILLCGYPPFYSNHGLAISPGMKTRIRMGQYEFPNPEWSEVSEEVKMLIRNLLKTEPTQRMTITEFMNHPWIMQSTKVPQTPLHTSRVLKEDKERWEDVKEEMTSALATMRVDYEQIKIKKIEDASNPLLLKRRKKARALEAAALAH

Ret (h) = target: T2, Ret (h) (human (h), UniProt P07949 658-1114, limits assumed)
T2 sequence (looked up): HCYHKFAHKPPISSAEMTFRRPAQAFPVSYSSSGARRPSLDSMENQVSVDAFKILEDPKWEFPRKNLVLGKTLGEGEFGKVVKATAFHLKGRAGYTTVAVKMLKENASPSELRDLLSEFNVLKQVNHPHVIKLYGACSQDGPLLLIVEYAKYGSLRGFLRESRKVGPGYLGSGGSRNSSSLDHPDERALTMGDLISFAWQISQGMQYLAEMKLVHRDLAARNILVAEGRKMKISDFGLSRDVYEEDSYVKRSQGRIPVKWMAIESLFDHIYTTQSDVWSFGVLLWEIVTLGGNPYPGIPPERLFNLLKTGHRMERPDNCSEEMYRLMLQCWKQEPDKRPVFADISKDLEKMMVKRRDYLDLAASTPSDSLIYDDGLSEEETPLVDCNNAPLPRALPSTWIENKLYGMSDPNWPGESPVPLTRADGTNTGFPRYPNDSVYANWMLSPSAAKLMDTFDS

DYRK2 (h) = target: T3, DYRK2 (h) (human (h), UniProt Q92630 1-601, limits assumed)
T3 sequence (looked up): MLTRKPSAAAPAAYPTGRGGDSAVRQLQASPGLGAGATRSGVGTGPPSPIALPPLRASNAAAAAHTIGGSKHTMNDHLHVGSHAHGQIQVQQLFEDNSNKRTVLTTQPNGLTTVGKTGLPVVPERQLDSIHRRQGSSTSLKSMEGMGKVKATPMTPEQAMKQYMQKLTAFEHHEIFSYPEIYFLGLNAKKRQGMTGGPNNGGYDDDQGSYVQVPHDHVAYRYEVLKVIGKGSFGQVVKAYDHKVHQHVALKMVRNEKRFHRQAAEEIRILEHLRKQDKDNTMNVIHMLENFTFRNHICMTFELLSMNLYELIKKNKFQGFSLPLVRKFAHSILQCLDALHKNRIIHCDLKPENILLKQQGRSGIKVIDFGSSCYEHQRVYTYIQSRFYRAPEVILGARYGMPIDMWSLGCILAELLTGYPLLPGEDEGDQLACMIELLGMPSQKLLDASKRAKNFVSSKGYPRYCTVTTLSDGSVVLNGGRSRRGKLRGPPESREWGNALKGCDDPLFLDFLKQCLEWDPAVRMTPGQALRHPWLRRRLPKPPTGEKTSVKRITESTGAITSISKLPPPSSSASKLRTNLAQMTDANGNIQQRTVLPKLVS

MEKI (h) = MEKI (h) (human (h), UniProt Q02750 1-393)
CKIB (h) = CKIB (h) (human (h))

FAKLAARLYRKALARQLGVAA
Profile-1 @ = 100 µm (kinase profiler assay) (Aurora-A (h)): 65 | Profile-1 @ = 100 µm (kinase profiler assay) (KDR (tl)): 78 | Profile-1 @ = 100 µm (kinase profiler assay) (PDGFRβ (h)): 92 | Profile-1 @ = 100 µm (kinase profiler assay) (PKB β (h)): 16 | Profile-1 @ = 100 µm (kinase profiler assay) (MAPKI (h)): 104 | Profile-1 @ = 100 µm (kinase profiler assay) (EGFR (h)): 18 | Profile-1 @ = 100 µm (kinase profiler assay) (BTK (h)): 19 | Profile-1 @ = 100 µm (kinase profiler assay) (CaMKI (h)): 0 | Profile-1 @ = 100 µm (kinase profiler assay) (JAK3 (h)): 102 | Profile-1 @ = 100 µm (kinase profiler assay) (Src(1-530) (h)): 5 | Profile-1 @ = 100 µm (kinase profiler assay) (FGFR1 (h)): 22 | Profile-1 @ = 100 µm (kinase profiler assay) (MAPKAP-K2 (h)): 5 | Profile-1 @ = 100 µm (kinase profiler assay) (Ret (h)): 89 | Profile-1 @ = 100 µm (kinase profiler assay) (DYRK2 (h)): -11 | Profile-1 @ = 100 µm (kinase profiler assay) (MEKI (h)): 68 | Profile-1 @ = 100 µm (kinase profiler assay) (CKIB (h)): 99
